Data taken from PMC9482650, “Quantitative fragmentomics allow affinity mapping of interactomes” (Nature Communications, 2022).

Assays:
Test in all cases: holdup assay
Parameters in all cases: key: below the threshold = too weak to quantify, mostly under pKd 3.1 to 4
Conditions in all cases: plain residues with an end cap or a label only (N-terminal biotin on a linker: ado-ado)
[1] = molecular target: T1, APBA3_1, O96018
T1 sequence (O96018 389-490, limits assumed, looked up): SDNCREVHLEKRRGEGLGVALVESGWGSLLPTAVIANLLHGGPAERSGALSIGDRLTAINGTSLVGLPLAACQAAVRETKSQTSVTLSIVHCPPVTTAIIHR

[2] = molecular target: T2, DFNB31_1, Q9P202
T2 sequence (Q9P202 135-233, limits assumed, looked up): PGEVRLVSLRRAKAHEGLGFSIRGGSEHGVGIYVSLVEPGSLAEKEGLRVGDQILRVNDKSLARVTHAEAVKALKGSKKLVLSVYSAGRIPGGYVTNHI

[3] = molecular target: DLG2_2, Q15700
[4] = molecular target: T3, DLG3_3, Q92796
T3 sequence (Q92796 374-475, limits assumed, looked up): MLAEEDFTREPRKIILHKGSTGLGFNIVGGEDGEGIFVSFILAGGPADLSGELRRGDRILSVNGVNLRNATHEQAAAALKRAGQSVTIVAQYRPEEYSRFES

[5] = molecular target: T4, DVL3, Q92997
T4 sequence (Q92997 244-331, limits assumed, looked up): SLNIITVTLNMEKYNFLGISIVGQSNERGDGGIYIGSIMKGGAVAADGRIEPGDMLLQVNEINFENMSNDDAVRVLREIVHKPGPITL

[6] = molecular target: FRMPD2_1, Q68DX3
[7] = molecular target: GORASP1, Q9BQQ3
[8] = molecular target: GORASP2, Q9H8Y8
[9] = molecular target: GRIP2_6, Q9C0E4
[10] = molecular target: IL16_1, Q14005
[11] = molecular target: Inadl_1, Q8NI35
[12] = molecular target: Inadl_3, Q8NI35
[13] = molecular target: Inadl_4, Q8NI35
[14] = molecular target: T5, LRRC7, Q96NW7
T5 sequence (Q96NW7 1440-1537, limits assumed, looked up): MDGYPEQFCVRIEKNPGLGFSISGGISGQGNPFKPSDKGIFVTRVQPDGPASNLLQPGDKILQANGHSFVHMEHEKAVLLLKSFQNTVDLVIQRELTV

[15] = molecular target: T6, MPDZ_10, O75970
T6 sequence (O75970 1624-1722, limits assumed, looked up): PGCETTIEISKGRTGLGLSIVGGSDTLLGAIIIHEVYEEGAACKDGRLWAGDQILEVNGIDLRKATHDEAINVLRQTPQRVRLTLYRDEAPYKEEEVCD

[16] = molecular target: T7, MPDZ_5, O75970
T7 sequence (O75970 695-796, limits assumed, looked up): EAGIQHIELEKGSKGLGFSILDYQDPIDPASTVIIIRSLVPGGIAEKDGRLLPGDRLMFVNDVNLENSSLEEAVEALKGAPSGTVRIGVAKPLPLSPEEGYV

[17] = molecular target: T8, MPP7, Q5T2T1
T8 sequence (Q5T2T1 134-230, limits assumed, looked up): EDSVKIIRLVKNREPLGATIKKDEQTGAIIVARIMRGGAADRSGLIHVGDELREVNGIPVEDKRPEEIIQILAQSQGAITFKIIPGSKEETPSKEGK

[18] = molecular target: NHERF4_1, Q86UT5-2
[19] = molecular target: NHERF4_4, Q86UT5
[20] = molecular target: PDLIM1, O00151
[21] = molecular target: T9, PDZRN3_1, Q9UPQ7
T9 sequence (Q9UPQ7 244-349, limits assumed, looked up): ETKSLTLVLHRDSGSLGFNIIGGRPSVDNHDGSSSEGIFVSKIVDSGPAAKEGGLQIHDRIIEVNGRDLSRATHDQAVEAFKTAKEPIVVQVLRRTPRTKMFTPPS

[22] = molecular target: T10, RHPN1, Q8TCX5
T10 sequence (Q8TCX5 508-602, limits assumed, looked up): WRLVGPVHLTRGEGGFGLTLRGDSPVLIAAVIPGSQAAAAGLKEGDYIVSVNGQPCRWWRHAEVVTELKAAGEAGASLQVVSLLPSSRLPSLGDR

[23] = molecular target: SCRIB_1, Q14160
[24] = molecular target: SCRIB_3, Q14160
[25] = molecular target: T11, SNTB1, Q13884
T11 sequence (Q13884 107-205, limits assumed, looked up): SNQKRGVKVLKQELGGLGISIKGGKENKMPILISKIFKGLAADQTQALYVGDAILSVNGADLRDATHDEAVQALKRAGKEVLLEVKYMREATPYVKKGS

[26] = molecular target: TJP1_2, Q07157
Sequence of TJP1_2, Q07157 (Q07157 181-274): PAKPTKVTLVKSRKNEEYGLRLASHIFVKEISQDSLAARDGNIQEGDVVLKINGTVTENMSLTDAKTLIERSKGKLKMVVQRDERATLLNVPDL

Sequence of NHERF4_4, Q86UT5 (Q86UT5 464-550): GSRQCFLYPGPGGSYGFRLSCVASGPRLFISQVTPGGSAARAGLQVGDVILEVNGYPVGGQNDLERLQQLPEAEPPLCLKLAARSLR
Sequence of NHERF4_1, Q86UT5-2 (Q86UT5 other isoform, or with tags, fused parts or gaps): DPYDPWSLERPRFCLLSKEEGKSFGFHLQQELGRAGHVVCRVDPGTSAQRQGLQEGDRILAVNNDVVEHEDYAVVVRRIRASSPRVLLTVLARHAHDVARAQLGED
Sequence of SCRIB_1, Q14160 (Q14160 718-814): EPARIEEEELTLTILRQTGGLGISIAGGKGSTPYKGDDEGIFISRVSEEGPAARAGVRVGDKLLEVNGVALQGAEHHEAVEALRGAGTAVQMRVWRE
Sequence of GORASP1, Q9BQQ3 (Q9BQQ3 1-208): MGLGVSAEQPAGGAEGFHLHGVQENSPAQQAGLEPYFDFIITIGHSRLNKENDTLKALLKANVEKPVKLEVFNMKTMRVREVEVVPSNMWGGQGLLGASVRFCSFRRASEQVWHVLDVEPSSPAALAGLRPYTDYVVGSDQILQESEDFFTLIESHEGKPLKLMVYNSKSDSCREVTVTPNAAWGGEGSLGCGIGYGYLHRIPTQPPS
Sequence of DLG2_2, Q15700 (Q15700 189-283): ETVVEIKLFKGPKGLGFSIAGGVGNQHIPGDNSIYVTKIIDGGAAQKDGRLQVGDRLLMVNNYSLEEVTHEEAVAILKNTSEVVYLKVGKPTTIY
Sequence of SCRIB_3, Q14160 (Q14160 999-1103): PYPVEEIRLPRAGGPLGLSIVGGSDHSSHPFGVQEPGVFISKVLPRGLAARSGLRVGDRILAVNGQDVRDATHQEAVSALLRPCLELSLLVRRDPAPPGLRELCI
Sequence of PDLIM1, O00151 (O00151 1-87): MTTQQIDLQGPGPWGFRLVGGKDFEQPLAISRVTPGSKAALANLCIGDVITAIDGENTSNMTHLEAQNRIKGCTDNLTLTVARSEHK
Sequence of FRMPD2_1, Q68DX3 (Q68DX3 770-861): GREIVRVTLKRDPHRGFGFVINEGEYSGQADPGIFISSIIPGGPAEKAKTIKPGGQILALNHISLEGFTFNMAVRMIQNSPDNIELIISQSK
Sequence of Inadl_1, Q8NI35 (Q8NI35 113-229): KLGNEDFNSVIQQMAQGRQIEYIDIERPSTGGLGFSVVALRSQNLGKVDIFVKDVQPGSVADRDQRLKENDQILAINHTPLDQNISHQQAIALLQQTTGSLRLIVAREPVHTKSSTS
Sequence of Inadl_3, Q8NI35 (Q8NI35 359-469): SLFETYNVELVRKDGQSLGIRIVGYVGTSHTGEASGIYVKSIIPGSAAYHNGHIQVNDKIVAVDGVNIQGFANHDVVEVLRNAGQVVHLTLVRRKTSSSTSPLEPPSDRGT
Sequence of Inadl_4, Q8NI35 (Q8NI35 547-651): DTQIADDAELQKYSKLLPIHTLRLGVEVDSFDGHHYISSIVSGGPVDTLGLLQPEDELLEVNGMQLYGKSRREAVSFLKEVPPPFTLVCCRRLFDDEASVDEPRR
Sequence of IL16_1, Q14005 (Q14005 210-306): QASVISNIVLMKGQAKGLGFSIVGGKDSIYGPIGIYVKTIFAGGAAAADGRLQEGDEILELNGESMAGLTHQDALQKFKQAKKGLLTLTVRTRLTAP
Sequence of GRIP2_6, Q9C0E4 (Q9C0E4 648-740): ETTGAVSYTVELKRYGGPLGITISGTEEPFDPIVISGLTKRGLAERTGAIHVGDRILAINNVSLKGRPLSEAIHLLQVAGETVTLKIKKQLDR

## SSALYGESDL [ACTN2, P35609]
[1]
  pKd: below the threshold
[2]
  pKd: below the threshold
[3]
  pKd: 3.52
[4]
  pKd: 3.6
[5]
  pKd: below the threshold
[6]
  pKd: below the threshold
[7]
  pKd: below the threshold
[8]
  pKd: below the threshold
[9]
  pKd: below the threshold
[10]
  pKd: below the threshold
[11]
  pKd: below the threshold
[12]
  pKd: below the threshold
[13]
  pKd: below the threshold
[14]
  pKd: 3.86
[15]
  pKd: below the threshold
[16]
  pKd: below the threshold
[17]
  pKd: below the threshold
[18]
  pKd: 3.88
[19]
  pKd: below the threshold
[20]
  pKd: 4.75
[21]
  pKd: below the threshold
[22]
  pKd: 3.51
[23]
  pKd: 4.23
[24]
  pKd: 5.1
[25]
  pKd: 4.05
[26]
  pKd: below the threshold

## EVNETDDTKM [KCNJ1, P48048]
[1]
  pKd: below the threshold
[2]
  pKd: 3.69
[3]
  pKd: below the threshold
[4]
  pKd: below the threshold
[5]
  pKd: below the threshold
[6]
  pKd: below the threshold
[7]
  pKd: below the threshold
[8]
  pKd: below the threshold
[9]
  pKd: 3.52
[10]
  pKd: below the threshold
[11]
  pKd: 3.48
[12]
  pKd: below the threshold
[13]
  pKd: below the threshold
[14]
  pKd: below the threshold
[15]
  pKd: below the threshold
[16]
  pKd: below the threshold
[17]
  pKd: below the threshold
[18]
  pKd: below the threshold
[19]
  pKd: below the threshold
[20]
  pKd: below the threshold
[21]
  pKd: below the threshold
[22]
  pKd: below the threshold
[23]
  pKd: below the threshold
[24]
  pKd: 3.67
[25]
  pKd: below the threshold
[26]
  pKd: below the threshold

## NLSIEKETKL [ASNSD1, Q9NWL6]
[1]
  pKd: below the threshold
[2]
  pKd: 4.41
[3]
  pKd: 3.5
[4]
  pKd: below the threshold
[5]
  pKd: below the threshold
[6]
  pKd: below the threshold
[7]
  pKd: below the threshold
[8]
  pKd: below the threshold
[9]
  pKd: below the threshold
[10]
  pKd: below the threshold
[11]
  pKd: below the threshold
[12]
  pKd: below the threshold
[13]
  pKd: below the threshold
[14]
  pKd: below the threshold
[15]
  pKd: below the threshold
[16]
  pKd: below the threshold
[17]
  pKd: below the threshold
[18]
  pKd: 3.87
[19]
  pKd: below the threshold
[20]
  pKd: below the threshold
[21]
  pKd: 4.67
[22]
  pKd: 4.76
[23]
  pKd: 4.3
[24]
  pKd: 4.97
[25]
  pKd: 5.22
[26]
  pKd: below the threshold

## SKENVQETQI [LRRC4B, Q9NT99]
[1]
  pKd: below the threshold
[2]
  pKd: 5.32
[3]
  pKd: 4.47
[4]
  pKd: 3.68
[5]
  pKd: below the threshold
[6]
  pKd: below the threshold
[7]
  pKd: below the threshold
[8]
  pKd: below the threshold
[9]
  pKd: below the threshold
[10]
  pKd: below the threshold
[11]
  pKd: below the threshold
[12]
  pKd: below the threshold
[13]
  pKd: below the threshold
[14]
  pKd: below the threshold
[15]
  pKd: below the threshold
[16]
  pKd: below the threshold
[17]
  pKd: below the threshold
[18]
  pKd: below the threshold
[19]
  pKd: below the threshold
[20]
  pKd: below the threshold
[21]
  pKd: 4.19
[22]
  pKd: 5.1
[23]
  pKd: 4.93
[24]
  pKd: 4.88
[25]
  pKd: 5.07
[26]
  pKd: below the threshold

## GQEEQVTTRL [TRPC5, Q9UL62]
[1]
  pKd: below the threshold
[2]
  pKd: 4.42
[3]
  pKd: below the threshold
[4]
  pKd: below the threshold
[5]
  pKd: below the threshold
[6]
  pKd: below the threshold
[7]
  pKd: below the threshold
[8]
  pKd: below the threshold
[9]
  pKd: below the threshold
[10]
  pKd: below the threshold
[11]
  pKd: below the threshold
[12]
  pKd: below the threshold
[13]
  pKd: below the threshold
[14]
  pKd: below the threshold
[15]
  pKd: below the threshold
[16]
  pKd: below the threshold
[17]
  pKd: below the threshold
[18]
  pKd: 4.38
[19]
  pKd: below the threshold
[20]
  pKd: below the threshold
[21]
  pKd: 3.8
[22]
  pKd: 4.85
[23]
  pKd: 3.79
[24]
  pKd: 4.22
[25]
  pKd: 4.04
[26]
  pKd: below the threshold
